Test results reported in patent US20240122981A1 (University of Pennsylvania, published 2024).

Experiments:
[1] = target: T1, CC chemokine receptor 4 (CCR4) (human, UniProt P51679 1-360); assay: flow cytometry on HH cells, KW-0761 conjugated to Ax680
T1 construct: whole, on cells; No recombinant CCR4 was used; also called CD194
T1 sequence (looked up): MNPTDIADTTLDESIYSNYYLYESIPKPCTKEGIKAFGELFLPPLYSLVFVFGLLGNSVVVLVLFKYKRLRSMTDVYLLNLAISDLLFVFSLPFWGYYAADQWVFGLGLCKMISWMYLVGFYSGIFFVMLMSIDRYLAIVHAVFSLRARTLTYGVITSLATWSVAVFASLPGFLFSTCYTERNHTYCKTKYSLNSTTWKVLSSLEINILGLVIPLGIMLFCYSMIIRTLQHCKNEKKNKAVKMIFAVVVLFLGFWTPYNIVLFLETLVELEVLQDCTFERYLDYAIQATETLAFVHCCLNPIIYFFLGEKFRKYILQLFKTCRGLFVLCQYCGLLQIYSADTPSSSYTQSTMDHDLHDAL
Method: CCR4 was analyzed by FCM.
Dead cells were gated out by staining with violet amine-reactive viability dye, LIVE-DEAD violet (Invitrogen). Intracellular staining was performed using the Foxp3/Transcription Factor Staining Kit (Affymetrix) per the manufacturer's instructions. CCR4-CAR and CD19-CAR expression were detected by biotinylated antihuman Fab antibody and anti-mouse Fab antibody (Jackson ImmunoResearch), respectively. […] Data were collected either by a Fortessa LSRII or LSR II cytometer (BD Biosciences) and analyzed using FlowJo version 10 software (Tree Star).

[2] = target: T1, CC chemokine receptor 4 (CCR4); assay: flow cytometry on HH cells transduced with the CAR; loss of staining by the parent mAb
[3] = target: T1, CC chemokine receptor 4 (CCR4); assay: flow cytometry on HH cells transduced with the CAR; reduced staining by the parent mAb

B1: anti-CCR4 monoclonal antibody clone KW-0761 (mogamulizumab) (antibody, V domains shown)
VH: EVQLVESGGDLVQPGRSLRLSCAASGFIFSNYGMSWVRQAPGKGLEWVATISSASTYSYYPDSVKGRFTISRDNAKNSLYLQMNSLRVEDTALYYCGRHSDGNFAFGYWGQGTLVTVSS
VL: DVLMTQSPLSLPVTPGEPASISCRSSRNIVHINGDTYLEWYLQKPGQSPQLLIYKVSNRFSGVPDRFSGSGSGTDFTLKISRVEAEDVGVYYCFQGSLLPWTFGQGTKVEIK
notes: also called anti-CCR4 clone KW monoclonal antibody
- binding result [1]: binds

B2: CCR4(h1567_L2H)-CAR (other)
chain: DIVMTQSPDSLAVSLGERATINCKSSQSILYSSNQKNYLAWYQQKPGQSPKLLIYWASTRESGVPDRFSGSGSGTDFTLTISSLQAEDVAVYYCHQYLSSYTFGQGTKLEIKGGGGSGGGGSGGGGSGGGGSQVQLVQSGAEVKKPGASVKVSCKASGYTFASYYMHWMRQAPGQGLEWIGWINPGNVNTKYNEKFKGRATLTVDTSTNTAYMELSSLRSEDTAVYYCARSTYYRPLDYWGQGTLVTVSS
notes: Chimeric antigen receptor on the surface of transduced HH cells or primary T cells; also called CCR4-CAR(h1567_L2H); not shown: second-generation CAR backbone (CD8 hinge and transmembrane, 4-1BB, CD3 zeta); the fu
- binding result [2]: binds

B3: CCR4(KW_L2H)-CAR (other)
chain: GSDVLMTQSPLSLPVTPGEPASISCRSSRNIVHINGDTYLEWYLQKPGQSPQLLIYKVSNRFSGVPDRFSGSGSGTDFTLKISRVEAEDVGVYYCFQGSLLPWTFGQGTKVEIKGGGGSGGGGSGGGGSGGGGSEVQLVESGGDLVQPGRSLRLSCAASGFIFSNYGMSWVRQAPGKGLEWVATISSASTYSYYPDSVKGRFTISRDNAKNSLYLQMNSLRVEDTALYYCGRHSDGNFAFGYWGQGTLVTVSSSGTTTPAPRPPTPAPTIASQPLSLRPEACRPAAGGAVHTRGLDFACDIYIWAPLAGTCGVLLLSLVITLYCKRGRKKLLYIFKQPFMRPVQTTQEEDGCSCRFPEEEEGGCELRVKFSRSADAPAYKQGQNQLYNELNLGRREEYDVLDKRRGRDPEMGGKPRRKNPQEGLYNELQKDKMAEAYSEIGMKGERRRGKGHDGLYQGLSTATKDTYDALHMQALPPR
notes: Chimeric antigen receptor on the surface of transduced HH cells or primary T cells
- binding result [3]: binds
